# Measurements reported in IntAct's records for PubMed 19013276.
# B1: Cell cycle serine/threonine-protein kinase CDC5/MSD2 (Saccharomyces cerevisiae), P32562 (parent)
# chain: MSLGPLKAINDKQLNTRSKLVHTPIKGNTADLVGKENHFKQTKRLDPNNDHHHQPAQKKKREKLSALCKTPPSLIKTRGKDYHRGHFLGEGGFARCFQIKDDSGEIFAAKTVAKASIKSEKTRKKLLSEIQIHKSMSHPNIVQFIDCFEDDSNVYILLEICPNGSLMELLKRRKVLTEPEVRFFTTQICGAIKYMHSRRVIHRDLKLGNIFFDSNYNLKIGDFGLAAVLANESERKYTICGTPNYIAPEVLMGKHSGHSFEVDIWSLGVMLYALLIGKPPFQARDVNTIYERIKCRDFSFPRDKPISDEGKILIRDILSLDPIERPSLTEIMDYVWFRGTFPPSIPSTVMSEAPNFEDIPEEQSLVNFKDCMEKSLLLESMSSDKIQRQKRDYISSIKSSIDKLEEYHQNRPFLPHSLSPGGTKQKYKEVVDIEAQRRLNDLAREARIRRAQQAVLRKELIATSTNVIKSEISLRILASECHLTLNGIVEAEAQYKMGGLPKSRLPKIKHPMIVTKWVDYSNKHGFSYQLSTEDIGVLFNNGTTVLRLADAEEFWYISYDDREGWVASHYLLSEKPRELSRHLEVVDFFAKYMKANLSRVSTFGREEYHKDDVFLRRYTRYKPFVMFELSDGTFQFNFKDHHKMAISDGGKLVTYISPSHESTTYPLVEVLKYGEIPGYPESNFREKLTLIKEGLKQKSTIVTVD
# partner: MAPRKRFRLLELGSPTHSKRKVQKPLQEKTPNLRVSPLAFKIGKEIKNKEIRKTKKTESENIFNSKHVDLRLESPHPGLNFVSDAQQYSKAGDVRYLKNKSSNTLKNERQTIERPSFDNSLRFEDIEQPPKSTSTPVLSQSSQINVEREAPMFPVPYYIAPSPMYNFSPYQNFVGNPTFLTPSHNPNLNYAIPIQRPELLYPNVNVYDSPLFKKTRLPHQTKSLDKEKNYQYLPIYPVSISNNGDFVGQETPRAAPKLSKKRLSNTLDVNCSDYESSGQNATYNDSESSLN
# Variants of: B1
# Conditions: with spo13_yeast SPO13, P23624
row,Variant,effect of a mutation on the interaction
1,W517A;V518A;L530A,decreasing interaction

# Variants of: B1
# Conditions: with spo13_yeast SPO13, P23624
# Remark: another data set of the same source
row,Variant,effect of a mutation on the interaction
1,W517A;V518A;L530A,decreasing interaction
